Patent US20170159065A1 (VIB VZW, published 2017)

T1: JAZ3 (Arabidopsis, UniProt Q9LVI4 1-352)
T1 construct: Endogenous prey in TAP; Y2H fusion in the yeast assays
T1 sequence (looked up): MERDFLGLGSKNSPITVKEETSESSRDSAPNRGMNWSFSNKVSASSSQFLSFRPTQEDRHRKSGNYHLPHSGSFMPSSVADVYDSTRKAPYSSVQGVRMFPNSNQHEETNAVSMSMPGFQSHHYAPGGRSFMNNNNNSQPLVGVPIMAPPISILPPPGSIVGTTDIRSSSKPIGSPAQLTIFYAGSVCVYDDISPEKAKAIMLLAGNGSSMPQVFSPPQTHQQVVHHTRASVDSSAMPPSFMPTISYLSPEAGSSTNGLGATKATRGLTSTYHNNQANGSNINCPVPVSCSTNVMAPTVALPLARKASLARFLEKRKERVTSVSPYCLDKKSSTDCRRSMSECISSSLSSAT

T2: TIFY8 (Arabidopsis, UniProt Q84MB2 1-361)
T2 sequence (looked up): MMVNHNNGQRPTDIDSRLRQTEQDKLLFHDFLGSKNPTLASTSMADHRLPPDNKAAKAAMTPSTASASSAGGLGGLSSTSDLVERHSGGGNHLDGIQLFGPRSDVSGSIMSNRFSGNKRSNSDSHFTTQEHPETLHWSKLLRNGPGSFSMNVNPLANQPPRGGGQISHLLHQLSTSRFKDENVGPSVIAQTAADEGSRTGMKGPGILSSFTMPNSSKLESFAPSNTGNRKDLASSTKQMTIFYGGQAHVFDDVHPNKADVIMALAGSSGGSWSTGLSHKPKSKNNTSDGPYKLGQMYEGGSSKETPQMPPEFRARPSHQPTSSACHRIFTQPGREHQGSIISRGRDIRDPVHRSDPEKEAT

B1: PPD2 (PEAPOD2) (other, Arabidopsis thaliana, UniProt Q8GY55 1-315, looked up)
chain: MDVGVTTAKSILEKPLKLLTEEDISQLTREDCRKFLKEKGMRRPSWNKSQAIQQVLSLKALYEPGDDSGAGILRKILVSQPPNPPRVTTTLIEPRNELEACGRIPLQEDDGACHRRDSPRSAEFSGSSGQFVADKDSHKTVSVSPRSPAETNAVVGQMTIFYSGKVNVYDGVPPEKARSIMHFAANPIDLPENGIFASSRMISKPMSKEKMVELPQYGLEKAPASRDSDVEGQANRKVSLQRYLEKRKDRRFSKTKKAPGVASSSLEMFLNRQPRMNAAYSQNLSGTGHCESPENQTKSPNISVDLNSDLNSEDN
notes: Used as tagged bait in TAP from Arabidopsis cell culture and as a GAL4 fusion in Y2H/Y3H; the tags and fusion partners are not described; also called PPD2-HBH
B2: PPD1 (other, Arabidopsis thaliana, UniProt Q7XA73 1-313, looked up)
chain: MDVGVSPAKSILAKPLKLLTEEDISQLTREDCRKFLKDKGMRRPSWNKSQAIQQVLSLKALYEPGDDSGAGIFRKILVSQPVNPPRVTTTLIEPSNELEACGRVSYPEDNGACHRMDSPRSAEFSGGSGHFVSEKDGHKTTISPRSPAETSELVGQMTIFYSGKVNVYDGIPPEKARSIMHFAANPIDLPENGIFASSRMISKLISKEKMMELPQKGLEKANSSRDSGMEGQANRKVSLQRYREKRKDRKFSKAKKCPGVASSSLEMFLNCQPRMKAAYSQNLGCTGSPLHSQSPESQTKSPNLSVDLNSEGI
notes: Y2H fusion; also called PEAPOD1

How the values were obtained:
yeast two-hybrid = target: the molecule itself; test: yeast two-hybrid
JAZ3 = target: T1, JAZ3; test: tandem affinity purification (TAP) from Arabidopsis cell culture, Orbitrap mass spectrometry
Text: (§1) PPD proteins belong to the class II of the TIFY protein family together with 12 JAZ proteins […]. In the TIFY proteins, diverse domains are associated with different protein-protein interaction abilities, previously being able to isolate, by using tandem affinity purification (TAP), protein complexes from Arabidopsis cell cultures over-expressing JAZ proteins and to identify their interacting proteins (Pauwels et al., 2010). In order to determine the protein complex associated to PPD2, an updated and more sensitive protocol was applied using Orbitrap mass spectrometry (Eloy et al., 2012). […] To test this hypothesis, all 12 JAZ proteins, PPD1, PPD2 and TIFY8 for interaction with the PPD proteins were tested using yeast two-hybrid (Y2H) assays. These confirmed direct interaction with JAZ3 and TIFY8 and provided evidence of homo- and heterodimerization between PPD1 and PPD2. Moreover, the TAP analysis identified the TPL-adaptor protein NINJA and two proteins of yet unknown function, encoded by At3g24150 and At4g32295 and named KIX8 and KIX9 (see Table 3, Thakur et al., 2013).

TIFY8 = target: T2, TIFY8; test: as above
Text: as §1

PPD2 (PEAPOD2) = target: B1; test: yeast two-hybrid

binding result (JAZ3) | binding result (TIFY8) | binding result (PPD2 (PEAPOD2)) | Binder | binding result (yeast two-hybrid)
binds | binds |  | B1 | binds
 |  | binds | B2 | binds
